Laboratory results reported in US20190185568A1 (FUSO PHARMACEUTICAL INDUSTRIES, published 2019).

Key:
[1] = biological target: T1, bovine FcγRII-His (soluble extracellular region with 6xHis tag) (bovine, UniProt Q28110 43-225); assay: ELISA: antibody immobilized at 1.56 to 50 nM, bovine FcγRII-His added at 10 µg/ml, anti-polyhistidine detection [B]
T1 construct: extracellular domain; also called boFcγRII-His
T1 sequence: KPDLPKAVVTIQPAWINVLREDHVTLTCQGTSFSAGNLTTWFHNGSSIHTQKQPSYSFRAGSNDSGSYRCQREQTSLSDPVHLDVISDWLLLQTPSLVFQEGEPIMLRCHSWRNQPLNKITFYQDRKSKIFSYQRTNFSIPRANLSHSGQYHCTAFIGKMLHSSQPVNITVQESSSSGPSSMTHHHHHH
Method: (§1) Subsequently, each well was washed with […] of 0.05% Tween 20-supplemented PBS (PBS-T) five times, followed by blocking with SuperBlock (PBS) Blocking Buffer (Thermo Fisher Scientific) at 37° C. for 30 min, Each well was washed again in the same manner. Then, bovine FcγRI-His, FcγRII-His, FcγRIII-His or Fcγ2R-His was added to each well at a final concentration of 10 μg/ml and reacted at 37° C. for 1 hr. After washing, anti-polyhistidine tag mouse monoclonal antibody (Abeam) was reacted at 37° C. for 30 min. Subsequently, each well was washed, and horseradish peroxidase-labeled anti-mouse IgG goat polyclonal antibody (MP Biomedicals) was reacted at 37° C. for 30 min. Each well was washed again, and then TMB One Component Substrate (Bethyl) was added for coloring. Thereafter, the enzyme reaction was terminated with 0.18 M dilute sulfuric acid, and absorbance (450 nm) was measured with Microplate Reader MTP-900 (Corona Electric), For every plate washing operation, Auto Plate Washer BIO WASHER 50 (DS Pharma Biomedical) was used.

[2] = biological target: T2, bovine FcγRI-His (soluble extracellular region with 6xHis tag) (bovine); assay: ELISA: antibody immobilized at 1.56 to 50 nM, bovine FcγRI-His added at 10 µg/ml, anti-polyhistidine detection [A]
T2 construct: extracellular domain; also called boFcγRI-His; not shown: limits not st
Method: as §1

[3] = biological target: T3, bovine PD-1-His (soluble bovine PD-1 extracellular region with 6xHis tag) (bovine); assay: SPR (Biacore X100), bovine PD-1-His immobilized on CM5 chip, antibody as analyte, single kinetics, n=3
T3 chain: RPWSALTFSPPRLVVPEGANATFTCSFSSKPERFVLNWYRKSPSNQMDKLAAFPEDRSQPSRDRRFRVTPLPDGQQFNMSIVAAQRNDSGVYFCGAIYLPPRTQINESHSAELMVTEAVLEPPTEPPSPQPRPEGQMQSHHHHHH
Method: The binding avidities to bovine PD-1 of rat anti-bovine PD-1 antibody 5D2 and rat-bovine chimeric anti-bovine PD-1 antibody ch5D2 were measured by surface plasmon resonance using a bimolecular interaction analyzer (Biacore X100). Briefly, bovine PD-1-His (described above) was immobilized on a CM5 sensor chip (GE Healthcare) as a ligand. Subsequently, rat anti-bovine PD-1 antibody 5D2 or rat-bovine chimeric anti-bovine PD-1 antibody ch5D2 was reacted as an analyte, followed by single kinetics analysis. The experiment was repeated 3 times under the same conditions. Binding constant (kd value) and dissociation constant (ka value) were determined in each experiment, and binding avidity (KD value) was obtained.

B1: rat-bovine chimeric anti-bovine PD-1 antibody ch5D2 having wild-type bovine IgG1 (IgG1 WT) (antibody)
heavy: QVQLKETGPGLVQPTQTLSITCTVSGFSLTSYYIQWVRQTPGKGLEWMGFIRSGGSTEYNSEFKSRLSINRDTSKNQVFLKMNSLKTEDTGVYYCARTSSGYEGGFDYWGQGVMVTVSSASTTAPKVYPLSSCCGDKSSSTVTLGCLVSSYMPEPVTVTWNSGALKSGVHTFPAVLQSSGLYSLSSMVTVPGSTSGQTFTCNVAHPASSTKVDKAVDPTCKPSPCDCCPPPELPGGPSVFIFPPKPKDTLTISGTPEVTCVVVDVGHDDPEVKFSWFVDDVEVNTATTKPREEQFNSTYRVVSALRIQHQDWTGGKEFKCKVHNEGLPAPIVRTISRTKGPAREPQVYVLAPPQEELSKSTVSLTCMVTSFYPDYIAVEWQRNGQPESEDKYGTTPPQLDADSSYFLYSKLRVDRNSWQEGDTYTCVVMHEALHNHYTQKSTSKSAGK
light: DVVLTQTPVSLSVTLGDQASISCRSSQSLEYSDGYTYLEWYLQKPGQSPQLLIYGVSNRFSGVPDRFIGSGSGTDFTLKISRVEPEDLGVYYCFQATHDPDTFGAGTKLELKQPKSPPSVTLFPPSTEELNGNKATLVCLISDFYPGSVTVVWKADGSTITRNVETTRASKQSNSKYAASSYLSLTSSDWKSKGSYSCEVTHEGSTVTKTVKPSECS
notes: also called ch5D2 IgG1 WT
Question: Does B1 bind [1]?
Answer: Result: binds

Question: What about the “EC50 (read off the curve)” value [2] of the same binder?
Answer: Its value is about 9 nM.

B2: rat-bovine chimeric anti-bovine PD-1 antibody ch5D2 (mutated bovine IgG1, IgG1 ADCC-) (antibody)
heavy: QVQLKETGPGLVQPTQTLSITCTVSGFSLTSYYIQWVRQTPGKGLEWMGFIRSGGSTEYNSEFKSRLSINRDTSKNQVFLKMNSLKTEDTGVYYCARTSSGYEGGFDYWGQGVMVTVSSASTTAPKVYPLSSCCGDKSSSTVTLGCLVSSYMPEPVTVTWNSGALKSGVHTFPAVLQSSGLYSLSSMVTVPGSTSGQTFTCNVAHPASSTKVDKAVDPTCKPSPCDCCPPPPVAGPSVFIFPPKPKDTLTISGTPEVTCVVVDVGHDDPEVKFSWFVDDVEVNTATTKPREEQFNSTYRVVSALRIQHQDWTGGKEFKCKVHNEGLPSSIVRTISRTKGPAREPQVYVLAPPQEELSKSTVSLTCMVTSFYPDYIAVEWQRNGQPESEDKYGTTPPQLDADSSYFLYSKLRVDRNSWQEGDTYTCVVMHEALHNHYTQKSTSKSAGK
light: DVVLTQTPVSLSVTLGDQASISCRSSQSLEYSDGYTYLEWYLQKPGQSPQLLIYGVSNRFSGVPDRFIGSGSGTDFTLKISRVEPEDLGVYYCFQATHDPDTFGAGTKLELKQPKSPPSVTLFPPSTEELNGNKATLVCLISDFYPGSVTVVWKADGSTITRNVETTRASKQSNSKYAASSYLSLTSSDWKSKGSYSCEVTHEGSTVTKTVKPSECS
notes: Rat 5D2 variable regions on bovine IgG1 (modified from GenBank X62916) and bovine Ig lambda (X62917); also called ch5D2 IgG1 ADCC-
Question: What does the source list for B2?
Answer: binding result [1]: no binding (tested: 50 nM); Kd [3]: 10.5 nM; koff [3]: 0.000216 s⁻¹; kon [3]: 20700 M⁻¹ s⁻¹

B3: rat anti-bovine PD-1 monoclonal antibody 5D2 (antibody, V domains shown)
VH: QVQLKETGPGLVQPTQTLSITCTVSGFSLTSYYIQWVRQTPGKGLEWMGFIRSGGSTEYNSEFKSRLSINRDTSKNQVFLKMNSLKTEDTGVYYCARTSSGYEGGFDYWGQGVMVTVSS
VL: DVVLTQTPVSLSVTLGDQASISCRSSQSLEYSDGYTYLEWYLQKPGQSPQLLIYGVSNRFSGVPDRFIGSGSGTDFTLKISRVEPEDLGVYYCFQATHDPDTFGAGTKLELK
notes: Rat monoclonal antibody from a hybridoma; Rat IgG2a (kappa) was used as its isotype control; also called rat anti-bovine PD-1 antibody 5D2
Question: Which results are given for B3?
Answer: Kd [3]: 12.2 nM; koff [3]: 0.000215 s⁻¹; kon [3]: 18400 M⁻¹ s⁻¹
